This data set concerns series of eight synthetic peptides with sequences found in and around the C-proteinase cleavage sites of -Ala-Asp- and -Gly-Asp- in the four pro-alpha chains of types I, II and III procollagen.

In the case of “C-proteinase (enzyme used on the synthetic peptide substrates; source not stated)”, the “cleavage of synthetic peptides, HPLC followed by laser desorption mass spectrometry” value was “four of the eight propeptides were specifically and completely cleaved by the enzyme”.

(Values after patent US6562613.)
